From patent US20180346523A1

Molecular target: NLS-PpsR2-VP16 (Rhodopseudomonas palustris; H. simplex)
Assay: cell-based or functional assay

“BphP1-mCherry-TetR (from UniProt P04483 1-207)” was tested, and the EGFP signal, illuminated over dark-treated cells (pTRE-Tight-EGFP reporter, flow cytometry) was > 27 fold, the Rluc8 activation with 740 nm light against 470 nm light in cultured HeLa cells was 18 fold and the Rluc8 light-to-dark signal ratio in mouse liver after hydrodynamic transfection (pKA-207I10), 48 h was 5.7 fold. For the same substance, the Rluc8 signal, 740 nm illuminated mice over mice in darkness, HeLa cells injected subcutaneously, 48 h was 32 fold, the SEAP level, 740 nm light over darkness, after 12 h was 3 fold and the SEAP level, 740 nm light over darkness, after 48 h (pTRE-Tight-SEAP reporter, HeLa) was 40 fold. For the same substance, the SEAP reporter expression against the PhyB-PIF6 system, same reporter plasmid was 2 fold, the decrease of SEAP production by 12 h of 636 nm light after 12 h of 740 nm light, against cells kept in darkness was 2.3 fold and the half-time of SEAP accumulation under 740 nm light was 18 h. For the same substance, the rate of SEAP decrease in darkness after 636 nm illumination, against darkness alone was 2 fold.
